Measured values from US20170190753A1 (LABORATOIRE FRANCAIS DU FRACTIONNEMENT ET DES …, published 2017).

B1: pCEP4-1NT9-14CT20 (other)
chain: EDCNELPPRRNTEILTGSWSDQTYPEGTQAIYKCRPGYRSLGNVIMVCRKGEWVALNPLRKCQKRPCGHPGDTPFGTFTLTGGNVFEYGVKAVYTCNEGYQLLGEINYRECDTDGWTNDIPICEVVKCLPVTAPENGKIVSSAMEPDREYHFGQAVRFVCNSGYKIEGDEEMHCSDDGFWSKEKPKCVEISCKSPDVINGSPISQKIIYKENERFQYKCNMGYEYSERGDAVCTESGWRPLPSCEEKSCDNPYIPNGDYSPLRIKHRTGDEITYQCRNGFYPATRGNTAKCTSTGWIPAPRCTLKPCDYPDIKHGGLYHENMRRPYFPVAVGKYYSYYCDEHFETPSGSYWDHIHCTQDGWSPAVPCLRKCYFPYLENGYNQNYGRKFVQGKSIDVACHPGYALPKAQTTVTCMENGWSPTPRCIRVKTCSKSSIDIENGFISESQYTYALKEKAKYQCKLGYVTADGETSGSITCGKDGWSAQPTCIKSCDIPVFMNARTKNDFTWFKLNDTLDYECHDGYESNTGSTTGSIVCGYNGWSDLPICYEREGASGCPPPPQIPNSHNMTTTLNYRDGEKVSVLCQENYLIQEGEEITCKDGRWQSIPLCVEKIPCSQPPQIEHGTINSSRSSQESYAHGTKLSYTCEGGFRISEENETTCYMGKWSSPPQCEGLPCKSPPEISHGVVAHMSDSYQYGEEVTYKCFEGFGIDGPAIAKCLGEKWSHPPSCIKTDCLSLPSFENAIPMGEKKDVYKAGEQVTYTCATYYKMDGASNVTCINSRWTGRPTCRDTSCVNPPTVQNAYIVSRQMSKYPSGERVRYQCRSPYEMFGDEEVMCLNGNWTEPPQCKDSTGKCGPPPPIDNGDITSFPLSVYAPASSVEYQCQNLYQLEGNKRITCRNGQWSEPPKCLHPCVISREIMENYNIALRWTAKQKLYSRTGESVEFVCKRGYRLSSRSHTLRTTCWDGKLEYPTCAKRGGSGHHHHHH
B2: pCEP4-1NT7-10CT20 (other)
chain: EDCNELPPRRNTEILTGSWSDQTYPEGTQAIYKCRPGYRSLGNVIMVCRKGEWVALNPLRKCQKRPCGHPGDTPFGTFTLTGGNVFEYGVKAVYTCNEGYQLLGEINYRECDTDGWTNDIPICEVVKCLPVTAPENGKIVSSAMEPDREYHFGQAVRFVCNSGYKIEGDEEMHCSDDGFWSKEKPKCVEISCKSPDVINGSPISQKIIYKENERFQYKCNMGYEYSERGDAVCTESGWRPLPSCEEKSCDNPYIPNGDYSPLRIKHRTGDEITYQCRNGFYPATRGNTAKCTSTGWIPAPRCTLKPCDYPDIKHGGLYHENMRRPYFPVAVGKYYSYYCDEHFETPSGSYWDHIHCTQDGWSPAVPCLRKCYFPYLENGYNQNYGRKFVQGKSIDVACHPGYALPKAQTTVTCMENGWSPTPRCIRVKTGASGCELPKIDVHLVPDRKKDQYKVGEVLKFSCKPGFTIVGPNSVQCYHFGLSPDLPICKEQVQSCGPPPELLNGNVKEKTKEEYGHSEVVEYYCNPRFLMKGPNKIQCVDGEWTTLPVCIVEESTCGDIPELEHGWAQLSSPPYYYGDSVEFNCSESFTMIGHRSITCIHGVWTQLPQCVAIDKLKKCKSSNLIILEEHLKNKKEFDHNSNIRYRCRGKEGWIHTVCINGRWDPEVNCSMAQIQLCPPPPQIPNSHNMTTTLNYRDGEKVSVLCQENYLIQEGEEITCKDGRWQSIPLCVEKIPCSQPPQIEHGTINSSRSSQESYAHGTKLSYTCEGGFRISEENETTCYMGKWSSPPQCEGLPCKSPPEISHGVVAHMSDSYQYGEEVTYKCFEGFGIDGPAIAKCLGEKWSHPPSCIKTDCLSLPSFENAIPMGEKKDVYKAGEQVTYTCATYYKMDGASNVTCINSRWTGRPTCRDTSCVNPPTVQNAYIVSRQMSKYPSGERVRYQCRSPYEMFGDEEVMCLNGNWTEPPQCKDSTGKCGPPPPIDNGDITSFPLSVYAPASSVEYQCQNLYQLEGNKRITCRNGQWSEPPKCLHPCVISREIMENYNIALRWTAKQKLYSRTGESVEFVCKRGYRLSSRSHTLRTTCWDGKLEYPTCAKRGGSGHHHHHH
B3: pCEP4-1NT10-11CT20 (other)
chain: EDCNELPPRRNTEILTGSWSDQTYPEGTQAIYKCRPGYRSLGNVIMVCRKGEWVALNPLRKCQKRPCGHPGDTPFGTFTLTGGNVFEYGVKAVYTCNEGYQLLGEINYRECDTDGWTNDIPICEVVKCLPVTAPENGKIVSSAMEPDREYHFGQAVRFVCNSGYKIEGDEEMHCSDDGFWSKEKPKCVEISCKSPDVINGSPISQKIIYKENERFQYKCNMGYEYSERGDAVCTESGWRPLPSCEEKSCDNPYIPNGDYSPLRIKHRTGDEITYQCRNGFYPATRGNTAKCTSTGWIPAPRCTLKPCDYPDIKHGGLYHENMRRPYFPVAVGKYYSYYCDEHFETPSGSYWDHIHCTQDGWSPAVPCLRKCYFPYLENGYNQNHGRKFVQGKSIDVACHPGYALPKAQTTVTCMENGWSPTPRCIRVKTCSKSSIDIENGFISESQYTYALKEKAKYQCKLGYVTADGETSGSITCGKDGWSAQPTCIKSCDIPVFMNARTKNDFTWFKLNDTLDYECHDGYESNTGSTTGSIVCGYNGWSDLPICYERECELPKIDVHLVPDRKKDQYKVGEVLKFSCKPGFTIVGPNSVQCYHFGLSPDLPICKEQVQSGASGCGPPPELLNGNVKEKTKEEYGHSEVVEYYCNPRFLMKGPNKIQCVDGEWTTLPVCIVEESTCGDIPELEHGWAQLSSPPYYYGDSVEFNCSESFTMIGHRSITCIHGVWTQLPQCVAIDKLKKCKSSNLIILEEHLKNKKEFDHNSNIRYRCRGKEGWIHTVCINGRWDPEVNCSMAQIQLCPPPPQIPNSHNMTTTLNYRDGEKVSVLCQENYLIQEGEEITCKDGRWQSIPLCVEKIPCSQPPQIEHGTINSSRSSQESYAHGTKLSYTCEGGFRISEENETTCYMGKWSSPPQCEGLPCKSPPEISHGVVAHMSDSYQYGEEVTYKCFEGFGIDGPAIAKCLGEKWSHPPSCIKTDCLSLPSFENAIPMGEKKDVYKAGEQVTYTCATYYKMDGASNVTCINSRWTGRPTCRDTSCVNPPTVQNAYIVSRQMSKYPSGERVRYQCRSPYEMFGDEEVMCLNGNWTEPPQCKDSTGKCGPPPPIDNGDITSFPLSVYAPASSVEYQCQNLYQLEGNKRITCRNGQWSEPPKCLHPCVISREIMENYNIALRWTAKQKLYSRTGESVEFVCKRGYRLSSRSHTLRTTCWDGKLEYPTCAKRGGSGHHHHHH
B4: pCEP4-1NT9-10CT20 (other)
chain: EDCNELPPRRNTEILTGSWSDQTYPEGTQAIYKCRPGYRSLGNVIMVCRKGEWVALNPLRKCQKRPCGHPGDTPFGTFTLTGGNVFEYGVKAVYTCNEGYQLLGEINYRECDTDGWTNDIPICEVVKCLPVTAPENGKIVSSAMEPDREYHFGQAVRFVCNSGYKIEGDEEMHCSDDGFWSKEKPKCVEISCKSPDVINGSPISQKIIYKENERFQYKCNMGYEYSERGDAVCTESGWRPLPSCEEKSCDNPYIPNGDYSPLRIKHRTGDEITYQCRNGFYPATRGNTAKCTSTGWIPAPRCTLKPCDYPDIKHGGLYHENMRRPYFPVAVGKYYSYYCDEHFETPSGSYWDHIHCTQDGWSPAVPCLRKCYFPYLENGYNQNYGRKFVQGKSIDVACHPGYALPKAQTTVTCMENGWSPTPRCIRVKTCSKSSIDIENGFISESQYTYALKEKAKYQCKLGYVTADGETSGSITCGKDGWSAQPTCIKSCDIPVFMNARTKNDFTWFKLNDTLDYECHDGYESNTGSTTGSIVCGYNGWSDLPICYEREGASGCELPKIDVHLVPDRKKDQYKVGEVLKFSCKPGFTIVGPNSVQCYHFGLSPDLPICKEQVQSCGPPPELLNGNVKEKTKEEYGHSEVVEYYCNPRFLMKGPNKIQCVDGEWTTLPVCIVEESTCGDIPELEHGWAQLSSPPYYYGDSVEFNCSESFTMIGHRSITCIHGVWTQLPQCVAIDKLKKCKSSNLIILEEHLKNKKEFDHNSNIRYRCRGKEGWIHTVCINGRWDPEVNCSMAQIQLCPPPPQIPNSHNMTTTLNYRDGEKVSVLCQENYLIQEGEEITCKDGRWQSIPLCVEKIPCSQPPQIEHGTINSSRSSQESYAHGTKLSYTCEGGFRISEENETTCYMGKWSSPPQCEGLPCKSPPEISHGVVAHMSDSYQYGEEVTYKCFEGFGIDGPAIAKCLGEKWSHPPSCIKTDCLSLPSFENAIPMGEKKDVYKAGEQVTYTCATYYKMDGASNVTCINSRWTGRPTCRDTSCVNPPTVQNAYIVSRQMSKYPSGERVRYQCRSPYEMFGDEEVMCLNGNWTEPPQCKDSTGKCGPPPPIDNGDITSFPLSVYAPASSVEYQCQNLYQLEGNKRITCRNGQWSEPPKCLHPCVISREIMENYNIALRWTAKQKLYSRTGESVEFVCKRGYRLSSRSHTLRTTCWDGKLEYPTCAKRGGSGHHHHHH
B5: pCEP4-1NT8-14CT20 (other)
chain: EDCNELPPRRNTEILTGSWSDQTYPEGTQAIYKCRPGYRSLGNVIMVCRKGEWVALNPLRKCQKRPCGHPGDTPFGTFTLTGGNVFEYGVKAVYTCNEGYQLLGEINYRECDTDGWTNDIPICEVVKCLPVTAPENGKIVSSAMEPDREYHFGQAVRFVCNSGYKIEGDEEMHCSDDGFWSKEKPKCVEISCKSPDVINGSPISQKIIYKENERFQYKCNMGYEYSERGDAVCTESGWRPLPSCEEKSCDNPYIPNGDYSPLRIKHRTGDEITYQCRNGFYPATRGNTAKCTSTGWIPAPRCTLKPCDYPDIKHGGLYHENMRRPYFPVAVGKYYSYYCDEHFETPSGSYWDHIHCTQDGWSPAVPCLRKCYFPYLENGYNQNHGRKFVQGKSIDVACHPGYALPKAQTTVTCMENGWSPTPRCIRVKTCSKSSIDIENGFISESQYTYALKEKAKYQCKLGYVTADGETSGSITCGKDGWSAQPTCIKSGASGCPPPPQIPNSHNMTTTLNYRDGEKVSVLCQENYLIQEGEEITCKDGRWQSIPLCVEKIPCSQPPQIEHGTINSSRSSQESYAHGTKLSYTCEGGFRISEENETTCYMGKWSSPPQCEGLPCKSPPEISHGVVAHMSDSYQYGEEVTYKCFEGFGIDGPAIAKCLGEKWSHPPSCIKTDCLSLPSFENAIPMGEKKDVYKAGEQVTYTCATYYKMDGASNVTCINSRWTGRPTCRDTSCVNPPTVQNAYIVSRQMSKYPSGERVRYQCRSPYEMFGDEEVMCLNGNWTEPPQCKDSTGKCGPPPPIDNGDITSFPLSVYAPASSVEYQCQNLYQLEGNKRITCRNGQWSEPPKCLHPCVISREIMENYNIALRWTAKQKLYSRTGESVEFVCKRGYRLSSRSHTLRTTCWDGKLEYPTCAKRGGSGHHHHHH

Target: C3 convertase complex (UniProt P01024 23-1663; P00751 260-764)
Sequence (P01024 23-1663, chain 1 of 2): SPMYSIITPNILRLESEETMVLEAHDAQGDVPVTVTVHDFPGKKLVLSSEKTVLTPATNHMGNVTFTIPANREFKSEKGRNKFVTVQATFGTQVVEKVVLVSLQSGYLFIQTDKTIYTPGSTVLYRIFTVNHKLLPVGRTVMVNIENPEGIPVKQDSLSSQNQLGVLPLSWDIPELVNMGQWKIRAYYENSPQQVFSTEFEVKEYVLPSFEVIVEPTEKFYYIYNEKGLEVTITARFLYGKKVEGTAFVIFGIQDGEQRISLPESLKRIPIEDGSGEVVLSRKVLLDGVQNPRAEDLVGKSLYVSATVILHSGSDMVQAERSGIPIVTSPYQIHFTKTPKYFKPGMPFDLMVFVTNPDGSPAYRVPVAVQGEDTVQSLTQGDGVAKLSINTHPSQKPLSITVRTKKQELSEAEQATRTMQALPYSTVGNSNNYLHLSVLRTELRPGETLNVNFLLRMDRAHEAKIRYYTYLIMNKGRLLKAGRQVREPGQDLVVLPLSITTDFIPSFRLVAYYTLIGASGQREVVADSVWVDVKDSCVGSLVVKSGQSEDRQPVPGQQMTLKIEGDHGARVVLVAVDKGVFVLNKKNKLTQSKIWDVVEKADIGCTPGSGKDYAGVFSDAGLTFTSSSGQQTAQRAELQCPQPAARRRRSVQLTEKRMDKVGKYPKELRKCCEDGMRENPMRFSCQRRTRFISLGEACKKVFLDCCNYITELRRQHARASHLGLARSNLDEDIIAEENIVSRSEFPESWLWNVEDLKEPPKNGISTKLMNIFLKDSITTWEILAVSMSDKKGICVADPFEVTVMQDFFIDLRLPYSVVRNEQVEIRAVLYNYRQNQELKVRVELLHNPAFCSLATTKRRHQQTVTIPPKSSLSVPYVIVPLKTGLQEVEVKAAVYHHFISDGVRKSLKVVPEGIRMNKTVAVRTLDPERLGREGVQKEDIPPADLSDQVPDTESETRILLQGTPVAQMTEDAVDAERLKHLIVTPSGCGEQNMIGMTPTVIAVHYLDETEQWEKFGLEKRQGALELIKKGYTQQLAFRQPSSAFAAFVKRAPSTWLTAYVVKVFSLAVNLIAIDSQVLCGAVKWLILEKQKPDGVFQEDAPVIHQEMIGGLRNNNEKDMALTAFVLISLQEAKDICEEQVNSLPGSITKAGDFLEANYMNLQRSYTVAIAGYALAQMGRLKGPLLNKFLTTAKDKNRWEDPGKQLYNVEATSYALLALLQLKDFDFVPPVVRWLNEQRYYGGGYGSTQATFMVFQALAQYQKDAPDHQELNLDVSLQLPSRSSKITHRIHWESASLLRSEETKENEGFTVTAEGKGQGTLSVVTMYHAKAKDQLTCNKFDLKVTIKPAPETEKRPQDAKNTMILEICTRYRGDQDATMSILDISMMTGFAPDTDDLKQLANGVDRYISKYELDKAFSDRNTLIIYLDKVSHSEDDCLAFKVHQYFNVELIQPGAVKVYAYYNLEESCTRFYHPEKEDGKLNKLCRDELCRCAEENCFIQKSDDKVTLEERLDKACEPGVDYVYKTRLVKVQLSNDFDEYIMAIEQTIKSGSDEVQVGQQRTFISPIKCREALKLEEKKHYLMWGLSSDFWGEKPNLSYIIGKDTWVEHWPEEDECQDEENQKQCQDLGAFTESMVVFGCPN
Sequence (P00751 260-764, chain 2 of 2): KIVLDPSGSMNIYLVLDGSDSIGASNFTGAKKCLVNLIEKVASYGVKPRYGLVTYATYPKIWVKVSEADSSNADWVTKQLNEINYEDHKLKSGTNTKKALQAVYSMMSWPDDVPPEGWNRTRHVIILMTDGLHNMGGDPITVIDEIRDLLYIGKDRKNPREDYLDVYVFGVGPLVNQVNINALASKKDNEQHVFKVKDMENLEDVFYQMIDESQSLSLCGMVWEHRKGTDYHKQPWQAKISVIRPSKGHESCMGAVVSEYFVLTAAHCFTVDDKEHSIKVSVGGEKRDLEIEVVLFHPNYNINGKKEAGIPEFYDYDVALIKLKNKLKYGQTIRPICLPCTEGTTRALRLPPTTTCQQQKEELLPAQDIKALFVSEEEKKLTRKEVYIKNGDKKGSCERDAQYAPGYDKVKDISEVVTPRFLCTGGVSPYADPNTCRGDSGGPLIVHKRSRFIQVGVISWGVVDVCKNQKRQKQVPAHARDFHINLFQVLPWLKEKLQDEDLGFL
Experiment: cell-based or functional assay
For C3 convertase activity % of the control in this document: test concentration or dose not given here.

Binder	C3 convertase activity % of the control	C3 convertase activity IC50
B1	64 % of the control	0.57 µg/mL
B2	59 % of the control	0.602 µg/mL
B3	58 % of the control	0.612 µg/mL
B4	64 % of the control	0.552 µg/mL
B5	61 % of the control	0.645 µg/mL
